From paper PMC9278990 (Nature structural & molecular biology, 2021) come the findings set out here.

The target in the assay is recombinant LDHA (human, UniProt P00338 1-332). Kind of assay: fluorescence polarisation. A general note: Polarisation of emitted light reports the rotation of a fluorescent probe.

No end group written: not given here.

B1: FLCN-10 peptide (aa 219-228), rhodamine B-labeled (peptide, UniProt Q8NFG4 219-228, looked up)
peptide: AQRMNTAFTP
modifications: also: rhodamine B label (position not given here)
Consider B1, for which the binding result is listed as “binds”.
